Results as given in article PMC6764022 (ACS Nano, 2019).
Where no end group is shown, it is not given here. [ ]: non-standard residue; d: D form. Lys(N3) = [N-]=[N+]=NCCCC[C@H](N)C(=O)O

Key:
Test in all cases: counting of free and bound DNA origami nanostructures in electron micrographs (TEM); peptides displayed on DNA origamis A and B through oligonucleotide tags; gel-purified An and Bn mixed, total monomer concentrations 0.25-2.4 nM; background of random coincidences subtracted; Kd from the slope of a linear fit through the origin; additional systematic error of approximately 20%
[1] = target: T1, B3: DNA origami B decorated with three β-CC-Di-KE (azidonorleucine (Z) at the N-terminus, joined to oligonucleotide tag β, which is hybridised to a handle of DNA origami B); details: both partners purified
T1 chain: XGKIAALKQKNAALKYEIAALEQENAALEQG

[2] = target: the molecule itself
[3] = target: T2, B2: DNA origami B decorated with two β-CC-Di-KE (azidonorleucine (Z) at the N-terminus, joined to oligonucleotide tag β, which is hybridised to a handle of DNA origami B); details: both partners purified
T2 chain: T1 chain

In the case of GEIAALEQENAALEQKIAALKWKNAALKQG[Lys(N3)]-NH2 (other, also: tag α hybridised to handle of DNA origami A, three copies per origami) [A3: DNA origami A decorated with three CC-Di-EK-α], the Kd [1] is reported as 0.7 ± 0.1 nM and the Kd [2] is reported as 24 ± 4 nM.

B1: A2: DNA origami A decorated with two CC-Di-EK-α (other)
chain: GEIAALEQENAALEQKIAALKWKNAALKQG[Lys(N3)]-NH2
modifications: not fully specified; also: tag α hybridised to handle of DNA origami A, two copies per origami
B1 gave a Kd [3] of 25 ± 3 nM.
